According to patent US8530235B2, “Medium that supports culture of an oocyte and modulation of granulosa cell apoptosis” (Adelaide Research & Innovation Pty Ltd., priority 2005, dated 2013):

System: cumulus cells
Assay: Cumulus cell apoptosis in oocytectomized complexes (OOX) and COC, TUNEL with confocal microscopy
Type: cell-based, Bovine
Details: for effect on incidence of cumulus cell apoptosis: OOX cultured with increasing doses (GDF-9 0-175 ng/ml, BMP-6 0-100 ng/ml, BMP-15 0-20% v/v, 5-50 DO), presence or absence of FSH
Procedure: Bovine ovaries were collected from local abattoir and transported to the laboratory in warm saline (30-35° C.). Cumulus-oocyte complexes (COC) were aspirated from antral follicles (2- to 8-mm diameter) using an 18-gauge needle and a 10-ml syringe containing ˜2 ml aspiration media (Hepes-buffered Tissue Cultured Medium-199: TCM-199, ICN Biochemicals, Irvine, Calif., USA) supplemented with 50 μg/ml kanamycin (Sigma-Aldrish, St. louis, Mo.), 4 mg/ml fatty acid-free bovine serum albumin (FAF-BSA) (ICPbio ltd, Auckland, NZ). Intact COC with compact cumulus vestment greater than five cell layers and evenly pigmented cytoplasm were selected under a dissecting microscope and washed twice in Hepes-buffered TCM-199 and once in corresponding culturing media.
The cytoplasm of each oocyte was microsurgically removed from the COC (oocytectomy) using a micromanipulator as described in Buccione et al (Buccione et al. (1990) Dev Biol 138, 16-25.). The resulting oocytectomized complex (OOX) consists of a hollow zona pellucida surrounded by several layers of intact CC.
Denuded oocytes (DO) were generated by removing CC from COC by vortexing for approximately 4 minutes in 2 ml H-TCM-199/BSA. Any remaining CC were removed by repeated passage of the oocytes through a fine-bore fire-polished glass pipette in H-TCM-199/BSA.
CC apoptoic DNA was detected using TUNEl (Roche Diagnostic, Penzberg, Germany) according to the manufacturer's instructions. Briefly, following culture COC and OOX complexes were washed twice in PBS (pH 7.4) containing 1% BSA, fixed in 4% paraformaldehyde in PBS (pH 7.4) overnight at 4° C. and washed twice with PBS/BSA before placing on Cell-Tak-coated coverslips (Beckton Dickinson Biosciences, Franklin lakes, N.J.). Complexes were then permeabilized in 0.11/u Triton X-100 in 0.1% sodium citrate for 1 hour at room temperature and washed 3 times in PBS/BSA. The complexes were then incubated in fluorescein-conjugated dUTP and terminal deoxynucleotide transferase (TUNEl reagents, Roche) for 1 hour at 37° C. in the dark. Positive controls were incubated in DNAse 1 (0.005 U/µl), which cleaves all DNA, for 20 minutes at room temperature and washed twice in PBS/BSA before TUNEl. Negative controls were incubated in fluorescein-dUTP in the absence of TdT. After TUNEl, complexes were washed twice in PBS/BSA and counterstained with propidium iodide 0.5 μg/ml (PI) plus RNase A (0.1 mg/ml) for 1 hour at room temperature in the dark to label all nuclei. Complexes were then washed twice in PBS/BSA and mounted with slight coverslip compression in VectaShield anti-bleaching solution (Vector labs, Burlingame, Calif.), and stored in the dark at 4° C. for confocal analysis.
Apoptosis in COC and OOX was visualised and quantified using confocal microscopy. Dual fluorescence emission from CC was detected using a Nikon C1 Confocal Scanning Head and a Nikon TE2000E microscope (Nikon, Tokyo, Japan). Simultaneous emission capture of the apoptotic signal (fluorescein, lacer excitation 488 nm, emission 510-530 nm) and the nuclear signal (propidium iodide, excitation lacer 532, emission 590-640 nm) was performed.
In order to generate an accurate representation of the overall apoptotic incidence for all complexes, the depth of each complex was measured through a Z series to divide the construct into three percentiles (optical Z plane sections) at 25%, 50% and 75%. These optical section images were acquired and saved as independent colour channels (green, apoptotic cumulus fluorescence and red, nuclear cumulus fluorescence). The captured images were then processed in Scanalytics IPlab software Version 3.6. (Scanalytics, Fairfax, Va.). Quantification of CC number (for each colour channel) was independently measured using a macro script utilizing an auto segmentation filter for each optical section percentile (3 optical “z”-plane sections for each complex).

B1: GDF-9: Recombinant mouse GDF-9 produced in-house in transfected 293H cells, partially purified by HIC (protein, UniProt Q07105 307-441, looked up)
Growth/differentiation factor …: GQKAIRSEAKGPLLTASFNLSEYFKQFLFPQNECELHDFRLSFSQLKWDNWIVAPHRYNPRYCKGDCPRAVRHRYGSPVHTMVQNIIYEKLDPSVPRPSCVPGKYSPLSVLTIEPDGSIAYKEYEDMIATRCTCR
**Q.** For B1, which “effect on incidence of cumulus cell apoptosis” value is on record?
**A.** Its value is “no significant effect”.

B2: BMP-15: Recombinant ovine BMP-15 produced in-house in transfected 293H cells, partially purified by hydrophobic interaction chromatography; dosed as % v/v (protein, UniProt Q9MZE2 269-393, looked up)
Bone morphogenetic protein 15: QAGSIASEVPGPSREHDGPESNQCSLHPFQVSFQQLGWDHWIIAPHLYTPNYCKGVCPRVLHYGLNSPNHAIIQNLVSELVDQNVPQPSCVPYKYVPISILLIEANGSILYKEYEGMIAQSCTCR
**Q.** B2 was tested. Which “effect on incidence of cumulus cell apoptosis” value did it give?
**A.** Its value is “significantly reduced”.

**Q.** What about the “effect on cumulus cell apoptosis” value (OOX treated with 100 ng/ml BMP-7 and/or 10% BMP-15) of the same molecule?
**A.** Its value is “significantly reduced”.

**Q.** And the “effect on CC apoptosis, test for additive effect” value (OOX treated with DO, 10 ng/ml BMP-6 and/or 10% v/v BMP-15)?
**A.** Its value is “significantly (P<0.001) decreased”.
